Columns and labels:
activated factor X (FXa) [1] = target: activated factor X (FXa) (UniProt P00742); test: enzyme inhibition kinetics (chromogenic substrate); as a1, with 30 nM recombinant FV, no protein S
activated factor X (FXa) [2] = target: activated factor X (FXa) (UniProt P00742); test: enzyme inhibition kinetics (chromogenic substrate); as a1, with 30 nM recombinant FV and 100 nM protein S
activated factor X (FXa) [3] = target: activated factor X (FXa) (UniProt P00742); test: enzyme inhibition kinetics (chromogenic substrate); FXa 0.3 nM, TFPI 0–16 nM, S-2765 200 uM, 25 uM phospholipids (DOPC/DOPS/DOPE 60:20:20), 5 mM CaCl2, 25 °C, 60 min; no protein S, no FV; Ki = encounter complex, Ki* = overall dissociation constant
activated factor X (FXa) [4] = target: activated factor X (FXa) (UniProt P00742); test: enzyme inhibition kinetics (chromogenic substrate); as a1, with 100 nM protein S, no FV

UniProt P00742, sequence (P00742 41-179, chain 1 of 2): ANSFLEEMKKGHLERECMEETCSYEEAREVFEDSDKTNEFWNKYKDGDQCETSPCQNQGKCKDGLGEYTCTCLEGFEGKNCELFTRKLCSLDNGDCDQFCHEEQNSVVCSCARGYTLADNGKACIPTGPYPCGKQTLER
UniProt P00742, sequence (P00742 235-488, chain 2 of 2): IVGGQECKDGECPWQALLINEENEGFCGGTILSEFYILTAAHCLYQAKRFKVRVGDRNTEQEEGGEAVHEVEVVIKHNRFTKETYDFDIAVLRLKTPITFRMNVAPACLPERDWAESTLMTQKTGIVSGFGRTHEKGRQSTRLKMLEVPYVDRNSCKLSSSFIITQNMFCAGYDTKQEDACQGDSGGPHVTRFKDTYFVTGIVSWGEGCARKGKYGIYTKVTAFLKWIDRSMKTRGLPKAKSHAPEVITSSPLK

Ki (activated factor X (FXa) [1]): 0.31 nM
Ki of the encounter complex (first step) (activated factor X (FXa) [1]): 7.41 nM
Ki (activated factor X (FXa) [2]): 0.028 nM
Ki of the encounter complex (first step) (activated factor X (FXa) [2]): 1.61 nM
Ki (activated factor X (FXa) [3]): 0.05 nM
Ki of the encounter complex (first step) (activated factor X (FXa) [3]): 5.69 nM
Ki (activated factor X (FXa) [4]): 0.047 nM
Ki of the encounter complex (first step) (activated factor X (FXa) [4]): 4.57 nM
Substance: TFPI ΔCT (aa 1–249) (domain or fragment)

Reference: publication PMC5454113
